The target of assay [1] is HDAC4-VP16 fusion protein (pACT-HDAC4) (human, UniProt P56524 1-1084). Put plainly: mammalian two-hybrid (CheckMate), pG5-Luc luciferase in Jurkat cells.
For assay [2], the target named is T1, HDAC4 (H863L)-VP16 fusion protein (pACT-HDAC4 (H863L)) (human, UniProt P56524 1-1084).
T1 construct: also called HDAC4 dominant negative variant (H863L)
The description is as above.

The subject of assay [3] is IL-2 transcription (human IL-2 promoter). Put plainly: IL-2 reporter gene assay in Jurkat cells. Format: cell-based. As to the method:
To 1 μg of the plasmid pGL3 IL2 Pro43, which has a human IL-2 promoter sequence (the −674 to +54 region in the vicinity of the transcription initiation site) upstream of the firefly luciferase gene, and 6 μg of pRL-TK (Promega), the plasmids for the expression of wild-type HDAC4 or each of HDAC4 dominant negative variants (H802K, H803L, H863L) prepared in Example 3 was mixed in various ratios (1, 3 and 10 μg), and 1×10^7 Jurkat cells (ATCC, TIB-152) were transformed by the electroporation method (BIO-RAD, Gene Pulser II, voltage 300 V, charge 975 μF, 400 μL).
After transformation, 2.5 mL of RPMI 1640 containing 10% FBS (MOREGATE) (10% FBS RPMI 1640) was added, and this mixture was dispensed to a 96-well white plate in a ratio of 50 μL/well. After cultivation under conditions of 37° C., 5% CO2 and saturated humidity for 10 hours, a liquid mixture of Phorbol 12-Myristate 13-Acetate (PMA, SIGMA), Ionomycin (SIGMA) and Anti-CD28 antibody (Pharmingen) in 10% FBS RPMI 1640 was added at 50 μL/well (the final concentrations were 50 ng/mL, 1 μg/mL and 75 ng/mL, respectively) to stimulate the Jurkat cells. After cultivation under conditions of 37° C., 5% CO2 and saturated humidity for 12 hours, luciferase activity in the cells was measured according to the manual of the Bright-Glo Luciferase Assay System (Promega) using a multi-label counter (1420 MULTILABEL COUNTER ARVO SX, WALLAC).
1×10^7 Jurkat cells (ATCC, TIB-152) were transformed with 10 μg of a plasmid for the expression of various HDACs or HDAC variants by the electroporation method (BIO-RAD, Gene Pulser II, voltage 300 V, charge 975 μF, 400 μL). […] After cultivation under conditions of 37° C., 5% CO2 and saturated humidity for 12 hours, luciferase activity in cells were measured according to the manual of the Bright-Glo Luciferase Assay System (Promega), and IL-2 transcriptional activity was measured using a multi-label counter (1420 MULTILABEL COUNTER ARVO SX, WALLAC).
A mixture of four kinds of HDAC4-targeted siRNA, i.e., siGENE HDAC4 SMARTpool (manufactured by Dharmacon Inc., marketed by B-Bridge international Inc., code number M-003497-00-05), or Non-specific Control Duplex IX (47% GC content) (manufactured by Dharmacon Inc., marketed by B-Bride international Inc., code number D-001206-09-20), and pGL3 IL2 Pro43 were transfected to Jurkat cells by the electroporation method using the same conditions as those mentioned above, and IL-2 transcriptional activity was measured. Likewise, siGENE HDAC4 SMARTpool or Non-specific Control Duplex IX, and pGL3-HSI-IE Pro were transfected to HEL cells, and GATA-1 transcriptional activity was measured. […]
On the technique in general: Reporter assays use an easily measured gene product as a stand-in for the process of interest.

The subject of assay [4] is GATA-1 transcription (human GATA-1 promoter). Kind of assay: GATA-1 reporter gene assay in HEL cells. It counts as cell-based. Conditions: 10 μg expression plasmid. As to the method: Using 15 μg of pGL3-HSI-IE Pro and 10 μg of a plasmid for the expression of various HDACs or HDAC variants, 8.75×10^6 HEL cells (accession number JCRB0062, JCRB) were transformed by the electroporation method (BIO-RAD, Gene Pulser II, voltage 1750 V, charge 10 μF, 365 μL). After transformation, 2 mL of 10% FBS RPMI 1640 was added, and this mixture was dispensed to a 96-well white plate in a ratio of 50 μL/well. After cultivation under conditions of 37° C., 5% CO2 and saturated humidity for 3 hours, 10% FBS RPMI 1640 medium was added at 50 μL/well. After cultivation under conditions of 37° C., 5% CO2 and saturated humidity for 8 hours, luciferase activity in cells were measured according to the manual of the Bright-Glo Luciferase Assay System, and GATA-1 transcriptional activity was measured using a multi-label counter.
A mixture of four kinds of HDAC4-targeted siRNA, i.e., siGENE HDAC4 SMARTpool (manufactured by Dharmacon Inc., marketed by B-Bridge international Inc., code number M-003497-00-05), or Non-specific Control Duplex IX (47% GC content) (manufactured by Dharmacon Inc., marketed by B-Bride international Inc., code number D-001206-09-20), and pGL3 IL2 Pro43 were transfected to Jurkat cells by the electroporation method using the same conditions as those mentioned above, and IL-2 transcriptional activity was measured. […]

Assay [5] relates to histone. Put plainly: HDAC activity with [3H]-labeled acetylated histone as a substrate. Format: biochemical, human. To be noted: expressed in 293T cells, crudely purified; compared to wild-type HDAC4. As to the method: 7 μg of a plasmid for the expression of wild-type HDAC4 and HDAC4 dominant negative variants (H802K, H803L, H863L) was transfected to 293T cells by the calcium phosphate method; 48 hours later, whole cell lysate (cells were disrupted in 25 mM Tris, pH 7.4, 150 mM NaCl, 1 mM CaCl2, 1% Triton X-100, and cell debris was removed by centrifugation) was crudely purified using an anti-Flag antibody column (SIGMA, anti-Flag M2-agarose) (washed with TBS, then eluted with 0.1M Glysine-HCl, pH 3.5), and used for the measurement of HDAC activity. The reaction substrate used was a [^3H]-labeled acetylated histone prepared by cultivating Jurkat cells (2×10^8 cells) in 40 mL of an RPMI (SIGMA) medium containing 300 MBq [^3H] sodium acetate (NENTM Life Science Products, Inc.) for 2 hours, disrupting the cells in Lysis buffer, pH 6.5 (10 mM Tris-HCl, 50 mM Sodium Hydrogen sulfate, 1% Triton X-100, 10 mM MgCl2-6H2O, 8.6% Sucrose), washing the cells with Wash buffer (10 mM Tris-HCl, 13 mM EDTA), and then adding 0.4N H2SO4.

This is an account of results in patent US20070123452A1, “Method of selecting novel immunosuppressant” (Astellas Pharma Inc., priority 2002, published 2007).

B1: GAL4-N-CoR (RD3) fusion protein (pBIND-N-CoR(RD3)) (other, not shown: large carriers)
chain: EVLQPAPHQVITNLPEGVRLPTTRPTRPPPPLIPSSKTTVASEKPSFIMGGSISQGTPGTYLTSHNQASYTQETPKPSVGSISLGLPRQQESAKSATLPYIKQEEFSPRSQNSQPEGLLVRAQHEGVVRGTAGAIQEGSITRGTPTSKISVESIPSLRGSITQGTPALPQTGIPTEALVKGSISRMPIEDSSPEKGREEAASKGHVIYEGKSGHILSYDNIKNAREGTRSPRTAHEISLKRSYESVEGNIKQGMSMRESPVSAPLEGLICRALPRGSPHSDLKERTVLSGSIMQGTPRATTESFEDGLKYPKQIKRESPPIRAFEGAITKGKPYDGITTIKEMGRSIHEIPRQDILTQESRKTPEVVQSTRPIIEGSISQGTPIKFDNNSGQSAIKHNVKSLITGPSKLSRGMPPLEIVPENIKVVERGKYEDVKAGETVRSRHTSVVSSGPSVLRSTLHEAPKAQLSPGIYDDTSARRTPVSYQN
notes: The cloned fragment carried the variation L1014V (numbered on full-length N-CoR); also called pBND-N-CoR (RD3)
Take B1: the figures for the binding result in assay [1] and in assay [2] were “binds” and “no binding”, respectively.

B2: HDAC4 dominant negative variants (H802K, H803L): HDAC4 variant with H802K and H803L mutations, amino acid sequence SEQ ID NO:4, expressed from plasmid (protein)
chain: MSSQSHPDGLSGRDQPVELLNPARVNHMPSTVDVATALPLQVAPSAVPMDLRLDHQFSLPVAEPALREQQLQQELLALKQKQQIQRQILIAEFQRQHEQLSRQHEAQLHEHIKQQQEMLAMKHQQELLEHQRKLERHRQEQELEKQHREQKLQQLKNKEKGKESAVASTEVKMKLQEFVLNKKKALAHRNLNHCISSDPRYWYGKTQHSSLDQSSPPQSGVSTSYNHPVLGMYDAKDDFPLRKTASEPNLKLRSRLKQKVAERRSSPLLRRKDGPVVTALKKRPLDVTDSACSSAPGSGPSSPNNSSGSVSAENGIAPAVPSIPAETSLAHRLVAREGSAAPLPLYTSPSLPNITLGLPATGPSAGTAGQQDTERLTLPALQQRLSLFPGTHLTPYLSTSPLERDGGAAHSPLLQHMVLLEQPPAQAPLVTGLGALPLHAQSLVGADRVSPSIHKLRQHRPLGRTQSAPLPQNAQALQHLVIQQQHQQFLEKHKQQFQQQQLQMNKIIPKPSEPARQPESHPEETEEELREHQALLDEPYLDRLPGQKEAHAQAGVQVKQEPIESDEEEAEPPREVEPGQRQPSEQELLFRQQALLLEQQRIHQLRNYQASMEAAGIPVSFGGHRPLSRAQSSPASATFPVSVQEPPTKPRFTTGLVYDTLMLKHQCTCGSSSSHPEHAGRIQSIWSRLQETGLRGKCECIRGRKATLEELQTVHSEAHTLLYGTNPLNRQKLDSKKLLGSLASVFVRLPCGGVGVDSDTIWNEVHSAGAARLAVGCVVELVFKVATGELKNGFAVVRPPGKLAEESTPMGFCYFNSVAVAAKLLQQRLSVSKILIVDWDVHHGNGTQQAFYSDPSVLYMSLHRYDDGNFFPGSGAPDEVGTGPGVGFNVNMAFTGGLDPPMGDAEYLAAFRTVVMPIASEFAPDVVLVSSGFDAVEGHPTPLGGYNLSARCFGYLTKQLMGLAGGRIVLALEGGHDLTAICDASEACVSALLGNELDPLPEKVLQQRPNANAVRSMEKVMEIHSKYWRCLQRTTSTAGRSLIEAQTCENEEAETVTAMASLSVGVKPAEKRPDEEPMEEEPPL
modifications: Dominant negative mutant (H802K, H803L) of human histone deacetylase-4 (HDAC4) gene
As for B2, the “IL-2 transcriptional activity (luciferase)” value in assay [3] (Jurkat cells stimulated with PMA, Ionomycin, Anti-CD28 antibody, expression plasmid 1, 3 and 10 μg) is recorded as “IL-2 transcription suppression depending on the expression level”; in assay [3] (Jurkat cells, 10 μg expression plasmid, compared with HDAC1 and HDAC3 variants), “IL-2 transcription suppression was observed”. In addition, the “GATA-1 transcriptional activity (luciferase)” value in assay [4] is “GATA-1 transcription suppression was not observed”. In assay [5], the “HDAC activity with histone as a substrate” value is “decreased HDAC activity compared to wild-type HDAC4”.
